This experiment concerns the target CLEC12A/CLL1 (Homo sapiens) (UniProt Q5QGZ9). Nature of the experiment: ELISA on plate coated with 1 ug/mL human CLEC12A; sdAb detected with mouse anti-myc mAb and goat anti-mouse IgG-HRP; Abs 450nm. For orientation: In an ELISA, binding on a coated surface is turned into a signal by an enzyme label.

Substitutions are numbered along the chain they refer to.

In general, EC50 refers to the concentration at which the effect is half-maximal.

B1: VHH clone 2F3 (VHH)
VHH: QVQLQAFGGGLVQPGGSLRLSCVVSGTMFSGKDVNWLRQAPGKHVEVVATVSSDGGTDYADFVKGRFTISRDDAKNTVNLQMNSLEPEDTANYMCHFLWGRHYWGQGTQVTVSS
In turn, B1 had an EC50 of 1.5 nM.

B2: VHH clone 1G6 (VHH)
VHH: QVQLQQSGGGLVQAGGSLRLSCAASGSIFAINEINLMGWYRQAPGKQRELVAACASDGNTYYADSVKGRFTISRDNAEKTVYLQMNNLKPDDTAVYYCDANSRGNYYSGQGTQVTVSS
In the case of B2, the EC50 was 0.48 nM.

B3: VHH clone 2F5 (VHH)
VHH: B2 VHH with V12A, A14T, R19I
Turning to B3, the half-maximal effective concentration (EC50) was determined as 0.65 nM.

B4: VHH clone 1B5 (VHH)
VHH: QVQLQESGGGLVQAGGSLRLSCVVSGATSNVNAMGWYRQAPGKERELVAAISSGGSTSYRDSVKGRFTISRDNAKNTLYLQMNSLKPEDTAMYYCAAQDWATEGYEYDYWGQGTLVTVSS
B4: the EC50 stood at 19.5 nM.

B5: VHH clone 2H3 (VHH)
VHH: QVQLQESGGGLVQAGGSLRLSCVASGSIRSINVMGWYRQAPGKQRELVAACASDGNTYYADSVKGRFTISRDNAEKTVYLQMNNLKPDDTAVYYCDANSRGNYYSGQGTQVTVSS
The molecule B5 returned an EC50 of 0.61 nM.

B6: VHH clone 1H1 (VHH)
VHH: QVQLQESGGGLVQPGGSLRLSCAASGFTFNSYAMTWVRQAPGKGLEWVSDINSGGGSTNYADSVKGRFTISRDNAKNTLYLQMNSLKPEDTAVYYCATELRGSDYYRGPIREYAYWGQGTLVTVSS
B6 came in with an EC50 of 0.9 nM.

Source of the values: patent US20220112292A1.
